Assay results from patent publication US11124558B2, “Use of tetranectin and peptide agonists to treat inflammatory diseases” (The Feinstein Institutes for Medical Research, priority 2017, dated 2021).
Like-named read-outs stand apart in the source and are kept apart here.

Experiments:
[1] = test system: lethal endotoxemia, Balb/C mice; test: Lethal endotoxemia (LPS) survival in mice; type: in vivo; conditions: LPS 5 mg/kg i.p., male Balb/C mice, TN given i.p., survival monitored more than two weeks
Method: (§1) FIG. 6A-6C: Recombinant TN protected mice against lethal endotoxemia and sepsis. Male Balb/C mice were subjected to lethal endotoxemia (LPS, 5 mg/kg, i.p., Panel A) or sepsis by cecal ligation and puncture (CLP, Panel B, C), and recombinant TN produced in HEK293 (Panel A, B) or E. coli (Panel C) was given intraperitoneally at indicated dosing regimens. Animal survival rates were monitored for more than two weeks to ensure no later death. Shown in Panel B and C is a summary of two independent experiments with similar results.
(§2) Effects of TN or peptide agonist on LSI. Balb/C mice (both male and female, 7-8 weeks, 20-25 g) are subjected to lethal endotoxemia or sepsis as described above, and the recombinant TN is injected (i.p.) at various doses and time points (2, 24, and 48 h) after the onset of endotoxemia or sepsis. Their effects on the outcomes of LSI is assessed by comparing the long-term (two-week) survival rates between the TN-treated groups with saline vehicle-treated controls. By varying the time points (e.g., 2, 12, 24 or 36 h) when the first dose of TN will be given to animals, the therapeutic windows for the TN-based therapy is estimated. […] It will be critical to continue these exciting experiments using other dosing regimens to further validate TN's protective role in LSI.
Effects of TN or peptide agonist supplementation on LSI. Balb/C mice (both male and female, 7-8 weeks, 20-25 g) are subjected to lethal endotoxemia or sepsis as described above, and the recombinant TN will be injected (i.p.) at various doses and time points (2, 24, and 48 h) after the onset of endotoxemia or sepsis. Their effects on the outcomes of LSI will be assessed by comparing the long-term (two-week) survival rates between the TN-treated groups with saline vehicle-treated controls. By varying the time points (e.g., 2, 12, 24 or 36 h) when the first dose of TN will be given to animals, the therapeutic windows for the TN-based therapy will be estimated.

[2] = test system: lethal sepsis (CLP), Balb/C mice; test: Lethal sepsis by cecal ligation and puncture (CLP), survival in mice; type: in vivo; conditions: male Balb/C mice, given intraperitoneally, survival monitored more than two weeks
Method: as §1
(§3) FIG. 9: N-terminal deletion TN mutant protected mice against lethal sepsis. Male Balb/C mice were subjected to lethal sepsis by cecal ligation and puncture (CLP), and recombinant deletion mutant (ΔTN) was given intrapeitoneally at indicated dosing regimens. Animal survival rates were monitored for more than two weeks to ensure no later death. Shown was a summary of two independent experiments with similar results.
as §3, with “10:” for “9: N-terminal deletion”, “peptide agonist (P11)” for “mutant”, “TN peptide agonist, (P11, […]) (SEQ ID NO:11)” for “recombinant deletion mutant (ΔTN)”, “N=8-18 animals per group.” for “similar results.”
FIG. 13A-13B: Tetranectin peptide agonists (P2 and P2-M/Nle) protected mice against lethal sepsis. Male Balb/C mice were subjected to lethal sepsis by cecal ligation and puncture (CLP), and TN peptide agonist, P2 (55-KVHMKCFLAFTQTKTF-70) (13A) (SEQ ID NO:2) or P2-M/Nle (54-TKVH(Nle)KSFLAFTQTKT-69) (13B) (SEQ ID NO:13) was given intraperitoneally at indicated dosing regimens. Animal survival rates were monitored for more than two weeks to ensure no later death. Shown was a summary of independent experiment with N=10 animals per group. The Kaplan-Meier method was used to compare the difference in mortality rates between groups. *, P<0.05 versus “CLP+Vehicle” group.
as §2
To explore the therapeutic potential of the TN-based strategies, the efficacy of TN-specific peptide agonists that would recapitulate the HMGB1-inhibiting capacities is tested using both animal models of lethal endotoxemia and sepsis. A series of peptide agonists have been designed, and chemically synthesized or biologically expressed as recombinant peptide (Table 1, FIG. 7). Peptide agonists will be given to the endotoxemic or septic mice intraperitoneally at various doses and time points after the onset of endotoxemia or sepsis. Their effects on the outcomes of LSI is assessed by comparing the long-term (two-week) survival rates between the peptide agonist groups and the saline vehicle-treated controls.
TN-specific peptide agonists are tested that would recapitulate the HMGB1-inhibiting capacities using both animal models of lethal endotoxemia and sepsis. Peptide agonists are given to the endotoxemic or septic mice intraperitoneally at various doses and time points after the onset of endotoxemia or sepsis. […]

plasminogen (PLMG) = plasminogen (PLMG) (Homo sapiens, UniProt P00747); conditions: cited from earlier work
Chain of plasminogen (PLMG) (P00747 20-810 limits assumed): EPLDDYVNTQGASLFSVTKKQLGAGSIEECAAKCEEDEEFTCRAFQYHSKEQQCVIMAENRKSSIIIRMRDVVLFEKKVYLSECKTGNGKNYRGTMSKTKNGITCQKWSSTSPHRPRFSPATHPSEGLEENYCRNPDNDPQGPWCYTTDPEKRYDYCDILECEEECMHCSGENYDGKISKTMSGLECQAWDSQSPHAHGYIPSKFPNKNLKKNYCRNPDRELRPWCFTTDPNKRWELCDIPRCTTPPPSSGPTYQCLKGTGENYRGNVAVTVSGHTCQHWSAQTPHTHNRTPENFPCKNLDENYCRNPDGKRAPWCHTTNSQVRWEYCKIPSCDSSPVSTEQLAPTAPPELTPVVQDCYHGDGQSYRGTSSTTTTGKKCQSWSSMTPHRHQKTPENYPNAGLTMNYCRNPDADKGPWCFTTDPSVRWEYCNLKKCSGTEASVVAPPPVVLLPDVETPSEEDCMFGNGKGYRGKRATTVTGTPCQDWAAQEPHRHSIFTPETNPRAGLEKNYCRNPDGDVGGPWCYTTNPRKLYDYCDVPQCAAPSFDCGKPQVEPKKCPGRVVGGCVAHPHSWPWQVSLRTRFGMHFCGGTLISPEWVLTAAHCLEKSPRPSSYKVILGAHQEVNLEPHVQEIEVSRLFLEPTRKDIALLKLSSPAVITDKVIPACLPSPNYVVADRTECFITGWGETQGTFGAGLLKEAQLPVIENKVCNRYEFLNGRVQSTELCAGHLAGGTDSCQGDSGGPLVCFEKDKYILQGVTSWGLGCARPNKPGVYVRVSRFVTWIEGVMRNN

[3] = molecular target: apolipoprotein A1 (Apo-A1); conditions: ref [58]; read-out: Kd of TN binding to Apo-A1; cited from earlier work

B1: tetranectin (protein, listed as Homo sapiens)
chain: EPPTQKPKKIVNAKKDVVNTKMFEELKSRLDTLAQEVALLKEQQALQTVCLKGTKVHMKCFLAFTQTKTFHEASEDCISRGGTLGTPQTGSENDALYEYLRQSVGNEAEIWLGLNDMAAEGTWVDMTGARIAYKNWETEITAQPDGGKTENCAVLSGAANGKWFDKRCRDQLPYICQFGIV
In the case of B1, the “protection against lethal endotoxemia (animal survival)” value (“protection against lethal endotoxemia” for short) [1] is reported as “significant protection”, the “protection against lethal endotoxemia” value ([1]; listed as Recombinant TN) is reported as “protected” and the “protection against lethal endotoxemia” value ([1]; listed as recombinant TN) is reported as “significant protection”. The “protection against lethal sepsis (animal survival)” value (from here on “protection against lethal sepsis”) [2] was “significant protection”, the “protection against lethal sepsis” value ([2]; listed as Recombinant TN) was “protected” and the “protection against lethal sepsis” value ([2]; listed as recombinant TN) was “significant protection”. The Kd (plasminogen (PLMG); ref [57], read-out: Kd of calcium-sensitive TN-PLMG interaction) was 500 nM, the Kd (plasminogen (PLMG); ref [74], read-out: Kd of TN-PLMG interaction) was 500 nM and the Kd [3] was 13 nM.
